The record followed here is patent EP0896625B1.

Experiment in all cases: cell-based or functional assay
Experiment [1] concerns the target rEDN(1-21)rOnc (human; Rana pipiens).
The target of experiment [2] is [Met-(-1)]rOncG20 (Rana pipiens).
Another experiment has as its target rEDN(1-21)rOncG26.
In experiment [3] the target is [Met-(-1)]rOnc (Rana pipiens).
The target in experiment [4] is Native ONCONASE (Rana pipiens).
Experiment [5] addresses recombinant human eosinophil-derived neurotoxin (human).

With “Placental ribonuclease inhibitor (from UniProt P13489 2-461)”, the IC50 (ng/ml), (+)PRI, inhibition of protein synthesis in the rabbit reticulocyte lysate in experiment [1] was 3200 ng/mL; in experiment [2], 24 ng/mL; with rEDN(1-21)rOncG26, 600 ng/mL; in experiment [3], 140 ng/mL; in experiment [4] it was 0.24 ng/mL; in experiment [5], above 40 ng/mL. In addition, the Fold Difference, (+)PRI against (-)PRI in experiment [2] was 0.9 fold; with rEDN(1-21)rOncG26, 21 fold; in experiment [3], 1.4 fold; in experiment [4] it was 1.2 fold; in experiment [5] it was above 30.7 fold.
